According to publication PMC8932525 (The Journal of Cell Biology, 2022):

Columns and labels:
[1] = target: nuclear pore complexes (NPCs) in endoKap-depleted digitonin-permeabilized HeLa cells (human (endogenous in HeLa)); experiment: permeabilized cell assay, confocal fluorescence microscopy
importin-5 (Imp5) = target: T1, importin-5 (Imp5) (UniProt O00410 1-1097); experiment: SPR
T1 sequence (looked up): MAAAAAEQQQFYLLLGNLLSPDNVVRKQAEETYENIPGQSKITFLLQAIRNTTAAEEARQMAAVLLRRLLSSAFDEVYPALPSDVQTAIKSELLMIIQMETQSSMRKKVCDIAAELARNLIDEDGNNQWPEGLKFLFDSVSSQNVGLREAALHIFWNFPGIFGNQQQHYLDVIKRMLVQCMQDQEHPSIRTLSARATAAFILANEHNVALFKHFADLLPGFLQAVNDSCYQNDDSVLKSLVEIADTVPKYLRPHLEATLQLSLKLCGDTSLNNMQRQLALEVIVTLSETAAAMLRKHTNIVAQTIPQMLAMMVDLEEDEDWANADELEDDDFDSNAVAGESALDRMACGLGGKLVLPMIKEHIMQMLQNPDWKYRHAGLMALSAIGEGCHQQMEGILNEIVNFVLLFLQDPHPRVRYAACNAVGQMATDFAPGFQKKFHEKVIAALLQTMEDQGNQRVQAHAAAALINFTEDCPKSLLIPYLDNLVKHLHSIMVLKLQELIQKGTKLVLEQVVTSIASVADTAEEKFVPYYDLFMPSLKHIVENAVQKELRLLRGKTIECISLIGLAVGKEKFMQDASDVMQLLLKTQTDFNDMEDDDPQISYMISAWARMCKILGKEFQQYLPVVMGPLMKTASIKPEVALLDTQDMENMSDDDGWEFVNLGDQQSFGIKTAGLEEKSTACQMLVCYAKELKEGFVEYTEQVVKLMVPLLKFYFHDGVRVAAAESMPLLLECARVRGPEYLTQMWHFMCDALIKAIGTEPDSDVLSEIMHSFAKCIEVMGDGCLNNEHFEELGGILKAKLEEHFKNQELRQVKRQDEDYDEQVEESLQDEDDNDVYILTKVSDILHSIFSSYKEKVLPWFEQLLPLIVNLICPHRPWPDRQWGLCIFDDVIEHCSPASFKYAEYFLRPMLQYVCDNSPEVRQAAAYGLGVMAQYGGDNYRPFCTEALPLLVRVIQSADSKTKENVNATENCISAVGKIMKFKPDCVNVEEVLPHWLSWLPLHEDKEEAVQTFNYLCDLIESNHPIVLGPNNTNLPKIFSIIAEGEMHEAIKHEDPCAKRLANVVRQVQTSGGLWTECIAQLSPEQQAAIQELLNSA

[2] = target: CRM1 (exportin 1/chromosomal maintenance 1) (UniProt O14980 1-1071); experiment: SPR
Sequence of CRM1 (exportin 1/chromosomal maintenance 1) (O14980 whole entry): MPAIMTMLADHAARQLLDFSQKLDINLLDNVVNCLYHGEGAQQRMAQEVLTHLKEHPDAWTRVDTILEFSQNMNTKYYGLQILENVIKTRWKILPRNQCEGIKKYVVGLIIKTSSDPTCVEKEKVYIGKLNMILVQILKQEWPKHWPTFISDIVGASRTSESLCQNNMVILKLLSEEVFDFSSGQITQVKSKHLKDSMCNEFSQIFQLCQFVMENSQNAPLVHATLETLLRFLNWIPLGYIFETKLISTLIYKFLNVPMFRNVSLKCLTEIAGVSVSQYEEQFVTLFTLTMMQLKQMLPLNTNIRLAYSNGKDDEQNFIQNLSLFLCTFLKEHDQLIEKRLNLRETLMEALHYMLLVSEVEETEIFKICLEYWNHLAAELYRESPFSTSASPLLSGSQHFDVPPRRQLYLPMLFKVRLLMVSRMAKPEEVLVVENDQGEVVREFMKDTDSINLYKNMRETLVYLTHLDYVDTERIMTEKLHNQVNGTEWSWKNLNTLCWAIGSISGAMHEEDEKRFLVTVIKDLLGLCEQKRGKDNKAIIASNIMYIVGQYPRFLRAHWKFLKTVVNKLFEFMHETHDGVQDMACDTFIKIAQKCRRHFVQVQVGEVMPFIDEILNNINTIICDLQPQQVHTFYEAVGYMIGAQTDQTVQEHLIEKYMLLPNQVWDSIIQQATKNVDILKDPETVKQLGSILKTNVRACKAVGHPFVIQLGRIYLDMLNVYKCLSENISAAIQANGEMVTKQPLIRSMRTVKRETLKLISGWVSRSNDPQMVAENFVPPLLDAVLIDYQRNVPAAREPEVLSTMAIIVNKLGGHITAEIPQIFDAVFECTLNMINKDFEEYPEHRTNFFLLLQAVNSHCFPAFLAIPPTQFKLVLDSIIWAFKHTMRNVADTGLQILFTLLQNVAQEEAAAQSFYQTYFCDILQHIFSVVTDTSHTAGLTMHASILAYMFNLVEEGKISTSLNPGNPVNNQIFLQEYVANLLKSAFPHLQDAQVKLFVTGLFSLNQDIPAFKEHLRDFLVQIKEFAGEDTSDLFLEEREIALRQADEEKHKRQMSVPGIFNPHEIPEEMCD

Sequence of CRM1–Alexa Fluor 647 (O14980 whole entry): as above
Sequence of Kapβ1–Alexa Fluor 488 (Q14974 whole entry): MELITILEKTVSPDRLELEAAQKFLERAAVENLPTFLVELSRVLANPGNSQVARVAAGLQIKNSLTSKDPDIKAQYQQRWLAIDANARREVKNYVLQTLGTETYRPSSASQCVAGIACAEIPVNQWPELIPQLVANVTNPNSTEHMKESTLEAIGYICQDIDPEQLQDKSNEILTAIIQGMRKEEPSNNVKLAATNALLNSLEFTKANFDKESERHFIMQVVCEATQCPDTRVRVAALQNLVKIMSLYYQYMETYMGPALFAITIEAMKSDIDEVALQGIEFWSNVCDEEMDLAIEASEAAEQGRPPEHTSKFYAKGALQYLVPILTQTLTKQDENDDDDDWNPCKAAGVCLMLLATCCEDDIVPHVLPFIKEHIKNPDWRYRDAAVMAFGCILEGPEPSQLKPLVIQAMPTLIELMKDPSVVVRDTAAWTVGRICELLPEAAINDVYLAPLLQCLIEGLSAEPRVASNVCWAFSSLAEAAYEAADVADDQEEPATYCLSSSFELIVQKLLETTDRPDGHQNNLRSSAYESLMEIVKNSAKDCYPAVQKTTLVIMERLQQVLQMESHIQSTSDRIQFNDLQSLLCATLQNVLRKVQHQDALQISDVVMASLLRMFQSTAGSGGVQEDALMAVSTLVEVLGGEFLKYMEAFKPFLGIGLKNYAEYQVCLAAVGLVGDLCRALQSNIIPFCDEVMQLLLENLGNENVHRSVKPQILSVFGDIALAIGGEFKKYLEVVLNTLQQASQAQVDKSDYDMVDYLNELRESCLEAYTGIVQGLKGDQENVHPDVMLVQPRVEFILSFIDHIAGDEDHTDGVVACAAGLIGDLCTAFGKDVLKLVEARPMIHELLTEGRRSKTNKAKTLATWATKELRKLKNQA

Row | Molecule | Kd [1] [µM] | relative occupancy with 10 µM exoImp5 [1] [%] | binding result (importin-5 (Imp5)) | Kd [2] [µM] | other results
1 | Kapβ1–Alexa Fluor 488 (from UniProt Q14974 1-876) (natural protein) | 3.1 | 72 | – | – | –
2 | CRM1–Alexa Fluor 647 (from UniProt O14980 1-1071) (natural protein) | 0.5 | 59 | – | – | K (D,NPC) in the presence of 10 µM exoKapβ1 [1]: 2.8 µM; reduction of relative occupancy from the standalone value, with 10 µM exoKapβ1 [1]: 51%
3 | cNup62 (cysteine-tagged FG domain of human Nup62) (domain or fragment, UniProt P37198 1-240, looked up) MSGFNFGGTGAPTGGFTFGTAKTATTTPATGFSFSTSGTGGFNFGAPFQPATSTPSTGLFSLATQTPATQTTGFTFGTATLASGGTGFSLGIGASKLNLSNTAATPAMANPSGFGLGSSNLTNAISSTVTSSQGTAPTGFVFGPSTTSVAPATTSGGFSFTGGSTAQPSGFNIGSAGNSAQPTAPATLPFTPATPAATTAGATQPAAPTPTATITSTGPSLFASIATAPTSSATTGLSLC | – | – | binds | 2.86 ± 0.38 | –
4 | cNup214 (cysteine-tagged FG domain of human Nup214) (domain or fragment, UniProt P35658 1809-2090, looked up) SPGFGQGGSVFGGTSAATTTAATSGFSFCQASGFGSSNTGSVFGQAASTGGIVFGQQSSSSSGSVFGSGNTGRGGGFFSGLGGKPSQDAANKNPFSSASGGFGSTATSNTSNLFGNSGAKTFGGFASSSFGEQKPTGTFSSGGGSVASQGFGFSSPNKTGGFGAAPVFGSPPTFGGSPGFGGVPAFGSAPAFTSPLGSTGGKVFGEGTAAASAGGFGFGSSSNTTSFGTLASQNAPTFGSLSQQTSGFGTQSSGFSGFGSGTGGFSFGSNNSSVQGFGGWRS | – | – | binds | 0.11 ± 0.02 | –
5 | cNup98 (cysteine-tagged FG domain of human Nup98) (domain or fragment, UniProt P52948 1-498, looked up) MFNKSFGTPFGGGTGGFGTTSTFGQNTGFGTTSGGAFGTSAFGSSNNTGGLFGNSQTKPGGLFGTSSFSQPATSTSTGFGFGTSTGTANTLFGTASTGTSLFSSQNNAFAQNKPTGFGNFGTSTSSGGLFGTTNTTSNPFGSTSGSLFGPSSFTAAPTGTTIKFNPPTGTDTMVKAGVSTNISTKHQCITAMKEYESKSLEELRLEDYQANRKGPQNQVGAGTTTGLFGSSPATSSATGLFSSSTTNSGFAYGQNKTAFGTSTTGFGTNPGGLFGQQNQQTTSLFSKPFGQATTTQNTGFSFGNTSTIGQPSTNTMGLFGVTQASQPGGLFGTATNTSTGTAFGTGTGLFGQTNTGFGAVGSTLFGNNKLTTFGSSTTSAPSFGTTSGGLFGNKPTLTLGTNTNTSNFGFGTNTSGNSIFGSKPAPGTLGTGLGAGFGTALGAGQASLFGNNQPKIGGPLGTGAFGAPGFNTTTATLGFGAPQAPVALTDPNASAAQQ | – | – | binds | – | –
6 | cNup153 (cysteine-tagged FG domain of human Nup153) (domain or fragment, UniProt P49790 874-1475, looked up) CESAKPGTKSGFKGFDTSSSSSNSAASSSFKFGVSSSSSGPSQTLTSTGNFKFGDQGGFKIGVSSDSGSINPMSEGFKFSKPIGDFKFGVSSESKPEEVKKDSKNDNFKFGLSSGLSNPVSLTPFQFGVSNLGQEEKKEELPKSSSAGFSFGTGVINSTPAPANTIVTSENKSSFNLGTIETKSASVAPFTCKTSEAKKEEMPATKGGFSFGNVEPASLPSASVFVLGRTEEKQQEPVTSTSLVFGKKADNEEPKCQPVFSFGNSEQTKDENSSKSTFSFSMTKPSEKESEQPAKATFAFGAQTSTTADQGAAKPVFSFLNNSSSSSSTPATSAGGGIFGSSTSSSNPPVATFVFGQSSNPVSSSAFGNTAESSTSQSLLFSQDSKLATTSSTGTAVTPFVFGPGASSNNTTTSGFGFGATTTSSSAGSSFVFGTGPSAPSASPAFGANQTPTFGQSQGASQPNPPGFGSISSSTALFPTGSQPAPPTFGTVSSSSQPPVFGQQPSQSAFGSGTTPNSSSAFQFGSSTTNFNFTNNSPSGVFTFGANSSTPAASAQPSGSGGFPFNQSPAAFTVGSNGKNVFSSSGTSFSGRKIKTAVRRRK | – | – | binds | – | –
